Reference: paper PMC7467689

Assays:
[1] = molecular target: coat protein of ssRNA bacteriophage AVE016 (uncultured ssRNA bacteriophage AVE016 (metagenome-derived)); test: crystal structure
[2] = molecular target: coat protein of ssRNA bacteriophage EMS014 (uncultured ssRNA bacteriophage EMS014 (metagenome-derived)); test: crystal structure

Row | Substance | stoichiometry N [1] [CP monomers] | stoichiometry N [2]
1 | coat protein of ssRNA bacteriophage AVE016 (natural protein) | 210 | 
2 | coat protein of ssRNA bacteriophage EMS014 (natural protein) |  | 2
